Laboratory results from PMC3526273, “A SUMO-interacting motif activates budding yeast ubiquitin ligase Rad18 towards SUMO-modified PCNA” (Nucleic Acids Research, 2012).
Residue numbers refer to the chain shown, from its start. Numbers in names are those of the source.

T1: GSTPCNA (S. cerevisiae, UniProt P15873 1-258)
T1 construct: PCNA of S. cerevisiae; not shown: GST, N-terminal, kept
T1 sequence (looked up): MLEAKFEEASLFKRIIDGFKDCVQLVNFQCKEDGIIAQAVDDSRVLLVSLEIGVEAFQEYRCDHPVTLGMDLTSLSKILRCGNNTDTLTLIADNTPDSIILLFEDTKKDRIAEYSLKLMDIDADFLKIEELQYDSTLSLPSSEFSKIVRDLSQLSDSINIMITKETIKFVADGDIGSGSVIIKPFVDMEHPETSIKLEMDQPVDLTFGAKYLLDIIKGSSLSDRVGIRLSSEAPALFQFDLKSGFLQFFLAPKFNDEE

B1: HisRad18(1-255) (domain or fragment, S. cerevisiae, UniProt P10862 1-255, looked up)
chain: MDHQITTASDFTTTSIPSLYQLDTLLRCHICKDFLKVPVLTPCGHTFCSLCIRTHLNNQPNCPLCLFEFRESLLRSEFLVSEIIQSYTSLRSSLLDALRIPKPTPVPENEEVPGPENSSWIELISESESDSVNAADDDLQIVATSERKLAKRSMTDILPLSSKPSKRNFAMFRSERIKKKSKPNEQMAQCPICQQFYPLKALEKTHLDECLTLQSLGKKPKISTTFPTESNPHNKSSSRFKVRTPEVDKSSCGET
notes: detected by anti-His western blot; not shown: His6, N-terminal, kept
B2: HisRad18(1-255) SIM* (L139A, I141A, V142A) (domain or fragment, S. cerevisiae, UniProt P10862 1-255, looked up)
chain: B1 chain with L139A, I141A, V142A
notes: also called SIM* mutant; not shown: His6, N-terminal, kept

Molecular target: T1, GSTPCNA
Experiment: pull-down; GST-tagged protein immobilised on glutathione Sepharose (1 h, 4°C), binding partner added for 90 min at 4°C in phosphate-buffered saline with 0.05% Triton X-100; three washes; anti-His western blot
Settings: both partners purified

| Binder | binding result |
| --- | --- |
| B1 | binds |
| B2 | binds |
